According to US20110082079A1 (Novo Nordisk, published 2011):
*1 amine or outer side, *2 acyl side, *3 side chain or, on linkers, in order; H or OH if unused. Where no end group is shown, it is not given here. Side-chain parts run from the residue outwards. [ ]: non-standard residue; d: D form. The star is where a group is joined. C20 diacid = O=C(O)CCCCCCCCCCCCCCCCCCC(=O)*; C18 diacid = O=C(O)CCCCCCCCCCCCCCCCC(=O)*; C16 diacid = O=C(O)CCCCCCCCCCCCCCC(=O)*; γGlu = O=C(O)[C@H](CCC(=O)[*:2])N[*:1]; Desaminohistidyl = O=C(CCc1c[nH]cn1)*; βAsp = O=C(O)[C@H](CC(=O)[*:2])N[*:1]; Palmitoyl = CCCCCCCCCCCCCCCC(=O)*; Trx = NC[C@H]1CC[C@H](C(=O)O)CC1; Dap = NC[C@H](N)C(=O)O; AEEA = NCCOCCOCC(=O)O; Aib = CC(C)(N)C(=O)O; Inp = O=C(O)C1CCNCC1

How the values were obtained:
[1] = molecular target: isolated N-terminal extracellular domain of the GLP-1R receptor (nGLP-1R) (UniProt P43220); assay: SPA; displacement of 125I-Exendin-4(9-39) from biotinylated nGLP-1R
human GLP-1 receptor = human GLP-1 receptor (human, UniProt P43220 24-463); assay: cell-based or functional assay
[2] = molecular target: T1, human serum albumin (HSA) (human, UniProt P02768 25-609, biotinylated); assay: competition SPA on biotinylated HSA beads; competitor 125I-labelled acylated GLP-1 analogue
T1 construct: also called biotinylated HSA

Chain of human GLP-1 receptor (P43220 24-463): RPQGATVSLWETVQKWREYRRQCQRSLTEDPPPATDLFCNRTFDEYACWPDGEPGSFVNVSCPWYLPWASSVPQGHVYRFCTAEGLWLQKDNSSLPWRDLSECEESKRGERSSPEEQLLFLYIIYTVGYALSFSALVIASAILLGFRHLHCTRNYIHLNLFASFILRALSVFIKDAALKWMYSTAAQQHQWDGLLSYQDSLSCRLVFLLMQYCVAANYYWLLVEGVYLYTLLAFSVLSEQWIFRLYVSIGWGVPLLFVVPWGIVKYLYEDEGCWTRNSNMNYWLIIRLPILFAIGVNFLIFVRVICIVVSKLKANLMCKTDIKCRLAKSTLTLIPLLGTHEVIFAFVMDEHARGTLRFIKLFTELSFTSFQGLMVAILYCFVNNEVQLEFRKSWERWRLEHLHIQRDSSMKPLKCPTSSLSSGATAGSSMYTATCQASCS
Chain of isolated N-terminal extracellular domain of the GLP-1R receptor (nGLP-1R) (P43220 24-145 limits assumed): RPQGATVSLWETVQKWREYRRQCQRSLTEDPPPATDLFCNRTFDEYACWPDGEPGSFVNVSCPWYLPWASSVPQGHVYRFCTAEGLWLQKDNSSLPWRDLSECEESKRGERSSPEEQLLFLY

| Molecule | IC50 [1] [nM] | Potency [EC50/nM], cAMP formation (human GLP-1 receptor) [nM] | EC50 [2] [nM] |
| --- | --- | --- | --- |
| N-epsilon31{2-(2-{2-[2-(2-{2-[4-Carboxy-4-(17-carboxy-heptadecanoylamino)butyrylamino]ethoxy}ethoxy)acetylamino]ethoxy}ethoxy)acetyl}-[Aib8,Glu22,Val25,Arg26,Lys31,Arg34,Arg35,Arg37)]GLP-1(7-37)yl [Arg39,Arg40,Arg41] (peptide) | – | 0.74 | 800 |
| [Desaminohistidyl]AEGTFTSDVSSYLEEQAAREFIEWLVRGRGEK([AEEA-AEEA-γGlu-C18 diacid]) [[desaminoHis7, Glu22, Arg26, Glu30, …] | – | 0.04 | 1500 to 2000 |
| [Desaminohistidyl]AEGTFTSDVSSYLEEQAAREFIEWLVRGK([AEEA-AEEA-γGlu-C16 diacid])GEK | – | 0.21 | > 2000 |
| [Desaminohistidyl]AEGTFTSDVSSYLEEQAAREFIEWLVRGRK([AEEA-AEEA-γGlu-Palmitoyl])-NH2 (SMILES CCCCCCCCCCCCCCCC(=O)N[C@@H](CCC(=O)NCCOCCOCC(=O)NCCOCCOCC(=O)NCCCC[C@H](NC(=O)[C@H](CCCNC(=N)N)NC(=O)CNC(=O)[C@H](CCCNC(=N)N)NC(=O)[C@@H](NC(=O)[C@H](CC(C)C)NC(=O)[C@H](Cc1c[nH]c2ccccc12)NC(=O)[C@H](CCC(=O)O)NC(=O)[C@@H](NC(=O)[C@H](Cc1ccccc1)NC(=O)[C@H](CCC(=O)O)NC(=O)[C@H](CCCNC(=N)N)NC(=O)[C@H](C)NC(=O)[C@H](C)NC(=O)[C@H](CCC(N)=O)NC(=O)[C@H](CCC(=O)O)NC(=O)[C@H](CCC(=O)O)NC(=O)[C@H](CC(C)C)NC(=O)[C@H](Cc1ccc(O)cc1)NC(=O)[C@H](CO)NC(=O)[C@H](CO)NC(=O)[C@@H](NC(=O)[C@H](CC(=O)O)NC(=O)[C@H](CO)NC(=O)[C@@H](NC(=O)[C@H](Cc1ccccc1)NC(=O)[C@@H](NC(=O)CNC(=O)[C@H](CCC(=O)O)NC(=O)[C@H](C)NC(=O)CCc1c[nH]cn1)[C@@H](C)O)[C@@H](C)O)C(C)C)[C@@H](C)CC)C(C)C)C(N)=O)C(=O)O) | – | 0.16 | – |
| [Desaminohistidyl]AEGTFTSDVSSYLEEQAAREFIEWLVRGRK([AEEA-AEEA-γGlu-Trx-C20 diacid]) | – | 0.66 | – |
| HXEGTFTSDVSSYLEEQAAREFIAWLVRGRK (not fully specified; Aib at 8; Lys37 is bound to the peptide through its epsilon amino group (epsilon-Lys37) and acylated at N-alpha with the side chain given in the name) | – | 0.08 | 200 to 400 |
| XAEGTFTSDVSSYLEEQAAREXIAWLVRGRK (desamino-histidine at 7; m-CF3-phenylalanine at 28; residue 37 acylated at N-epsilon with the side chain given in the name; C-terminal amide) | – | 0.35 | 1500 to 2000 |
| H[Aib]EGTFTSDVSSYLEEQAVREFIAK([AEEA-AEEA-γGlu-C18 diacid])LV[Dap](2‑(bis-carboxymethylamino)acetyl)-NH2 (GLP-1(7-34) = residues 1-28 of the entry) | – | 0.34 | 150 to 200 |
| H[Aib]EGTFTSDVSSYLEEQAAREFIEWLVKGRPK (not fully specified (residue 32); printed as [Aib8,Glu22,Arg26,Glu30,Pro37]GLP-1-(7-37)Lys [2-(2-{2-[4-Carboxy-4-(4-carboxy-4-{4-[4-(16-1H-tetrazol-5-yl-hexadecanoylsulfamoyl)butyrylamino]butyrylamino}butyrylamino)butyrylamino]ethoxy}ethoxy)acetyl]) [[Aib8,Glu22,Arg26,Glu30,Pro37]GLP-1-(7-37)Lys …] | – | 0.29 | 150 to 200 |
| H[Aib]EGTFTSDVSSYLEEQAAREFIAWLVR[Aib]RK([AEEA-AEEA-γGlu-C18 diacid]) | – | 0.06 | 100 to 150 |
| H[Aib]EGTFTSDVSSYLEEQAAREFIK([AEEA-AEEA-βAsp-Inp-C20 diacid])WLVKGRG | – | 0.52 | 200 to 400 |

More lines, now with the values ahead:

| IC50 [1] [nM] | Potency [EC50/nM], cAMP formation (human GLP-1 receptor) [nM] | EC50 [2] [nM] | Molecule |
| --- | --- | --- | --- |
| 1500 | 0.1 | – | Liraglutide (peptide) |
| – | 0.22 | 200 to 400 | H[Aib]EGTFTSDVSSYLEEQAAREFIEWLVKGK([AEEA-AEEA-C18 diacid])GE-NH2 |
| – | 0.18 | 200 to 400 | H[Aib]EGTFTSDVSSYLEEQAAREFIAK([AEEA-AEEA-βAsp-Inp-C20 diacid])LVRGRG |
| – | 0.14 | 400 to 800 | H[Aib]EGTFTSDVSSYLEEQAVREFIAK([AEEA-AEEA-γGlu-C18 diacid])LVKKK-NH2 (N-terminus assumed; SMILES CC[C@H](C)[C@H](NC(=O)[C@H](Cc1ccccc1)NC(=O)[C@H](CCC(=O)O)NC(=O)[C@H](CCCNC(=N)N)NC(=O)[C@@H](NC(=O)[C@H](C)NC(=O)[C@H](CCC(N)=O)NC(=O)[C@H](CCC(=O)O)NC(=O)[C@H](CCC(=O)O)NC(=O)[C@H](CC(C)C)NC(=O)[C@H](Cc1ccc(O)cc1)NC(=O)[C@H](CO)NC(=O)[C@H](CO)NC(=O)[C@@H](NC(=O)[C@H](CC(=O)O)NC(=O)[C@H](CO)NC(=O)[C@@H](NC(=O)[C@H](Cc1ccccc1)NC(=O)[C@@H](NC(=O)CNC(=O)[C@H](CCC(=O)O)NC(=O)C(C)(C)NC(=O)[C@@H](N)Cc1c[nH]cn1)[C@@H](C)O)[C@@H](C)O)C(C)C)C(C)C)C(=O)N[C@@H](C)C(=O)N[C@@H](CCCCNC(=O)COCCOCCNC(=O)COCCOCCNC(=O)CC[C@H](NC(=O)CCCCCCCCCCCCCCCCC(=O)O)C(=O)O)C(=O)N[C@@H](CC(C)C)C(=O)N[C@H](C(=O)N[C@@H](CCCCN)C(=O)N[C@@H](CCCCN)C(=O)N[C@@H](CCCCN)C(N)=O)C(C)C, GLP-1(7-36) = residues 1-30 of the entry) |
| – | 1.27 | > 2000 | H[Aib]EGTFTSDVSSYLEEQAVREFIAK([AEEA-AEEA-γGlu-C18 diacid])LVRRRR |
